# Measurements taken from the Human Domainome abundance scans (Beltran et al. 2025).
# ± gives the uncertainty stated by the source.
# B1: Zinc finger MYM-type protein 3, residues 589 to 668; numbered along this chain, Q14202 (parent)
# chain: LSCHYCHSLFSGKPEVLDWQDQVFQFCCRDCCEDFKRLRGVVSQCEHCRQEKLLHEKLRFSGVEKSFCSEGCVLLYKQDF
# Variants of: B1
# Assay: abundance fitness (aPCA) (normalised: wild type 0, dead -1); higher = more abundant; growth selection in yeast, the domain comes from the species named
# Conditions: Homo sapiens
row,Variant,abundance fitness
1,LSCHYCHSLFSGKPEVLDWQDQVFQFCCRDCCEDFKRLRGVVSQCEHCRQEKLLHEKLRFSGTEKSFCSEGCVLLYKQDF,-0.271 ± 0.28
2,LSCHYCHSLFSGKPEVLDWQDQVFQFCCRDCCEDFKRLRGVVSQCEHCRQEKLLHEKLRFSGREKSFCSEGCVLLYKQDF,-0.285 ± 0.11
3,LSCHYCHSLFSGKPEVLDWQDQVFQFCCRDCCEDFKRLRGVVSQCEHCRQEKLLHEKLRFSGQEKSFCSEGCVLLYKQDF,-0.548 ± 0.36
4,LSCHYCHSLFSGKPEVLDWQDQVFQFCCRDCCEDFKRLRGVVSQCEHCRQEKLLHEKLRFSGAEKSFCSEGCVLLYKQDF,-0.109 ± 0.13
5,LSCHYCHSLFSGKPEVLDWQDQVFQFCCRDCCEDFKRLRGVVSQCEHCRQEKLLHEKLRFSGSEKSFCSEGCVLLYKQDF,-0.255 ± 0.2
6,LSCHYCHSLFSGKPEVLDWQDQVFQFCCRDCCEDFKRLRGVVSQCEHCRQEKLLHEKLRFSGEEKSFCSEGCVLLYKQDF,0.175 ± 0.11
7,LSCHYCHSLFSGKPEVLDWQDQVFQFCCRDCCEDFKRLRGVVSQCEHCRQEKLLHEKLRFSGLEKSFCSEGCVLLYKQDF,-0.074 ± 0.18
8,LSCHYCHSLFSGKPEVLDWQDQVFQFCCRDCCEDFKRLRGVVSQCEHCRQEKLLHEKLRFSGKEKSFCSEGCVLLYKQDF,-0.13 ± 0.23
9,LSCHYCHSLFSGKPEVLDWQDQVFQFCCRDCCEDFKRLRGVVSQCEHCRQEKLLHEKLRFSGDEKSFCSEGCVLLYKQDF,-0.175 ± 0.21
10,LSCHYCHSLFSGKPEVLDWQDQVFQFCCRDCCEDFKRLRGVVSQCEHCRQEKLLHEKLRFSGPEKSFCSEGCVLLYKQDF,-0.198 ± 0.33
11,LSCHYCHSLFSGKPEVLDWQDQVFQFCCRDCCEDFKRLRGVVSQCEHCRQEKLLHEKGRFSGVEKSFCSEGCVLLYKQDF,0.012 ± 0.082
12,LSCHYCHSLFSGKPEVLDWQDQVFQFCCRDCCEDFKRLRGVVSQCEHCRQEKLLHEKTRFSGVEKSFCSEGCVLLYKQDF,-0.364 ± 0.18
13,LSCHYCHSLFSGKPEVLDWQDQVFQFCCRDCCEDFKRLRGVVSQCEHCRQEKLLHEKFRFSGVEKSFCSEGCVLLYKQDF,0.065 ± 0.28
14,LSCHYCHSLFSGKPEVLDWQDQVFQFCCRDCCEDFKRLRGVVSQCEHCRQEKLLHEKSRFSGVEKSFCSEGCVLLYKQDF,-0.254 ± 0.17
15,LSCHYCHSLFSGKPEVLDWQDQVFQFCCRDCCEDFKRLRGVVSQCEHCRQEKLLHEKERFSGVEKSFCSEGCVLLYKQDF,0.094 ± 0.15
16,LSCHYCHSLFSGKPEVLDWQDQVFQFCCRDCCEDFKRLRGVVSQCEHCRQEKLLHEKQRFSGVEKSFCSEGCVLLYKQDF,-0.146 ± 0.19
17,LSCHYCHSLFSGKPEVLDWQDQVFQFCCRDCCEDFKRLRGVVSQCEHCRQEKLLHEKHRFSGVEKSFCSEGCVLLYKQDF,0.542 ± 0.28
18,LSCHYCHSLFSGKPEVLDWQDQVFQFCCRDCCEDFKRLRGVVSQCEHCRQEKLLHEKVRFSGVEKSFCSEGCVLLYKQDF,0.544 ± 0.089
19,LSCHYCHSLFSGKPEVLDWQDQVFQFCCRDCCEDFKRLRGVVSQCEHCRQEKLLHEKWRFSGVEKSFCSEGCVLLYKQDF,-0.23 ± 0.14
20,LSCHYCHSLFSGKPEVLDWQDQVFQFCCRDCCEDFKRLRGVVSQCEHCRQEKLLHEKRRFSGVEKSFCSEGCVLLYKQDF,0.148 ± 0.08
21,LSCHYCHSLFSGKPEVLDWQDQVFQFCCRDCCEDFKRLRGVVSQCEHCRQEKLLHEKLQFSGVEKSFCSEGCVLLYKQDF,0.11 ± 0.29
22,LSCHYCHSLFSGKPEVLDWQDQVFQFCCRDCCEDFKRLRGVVSQCEHCRQEKLLHEKLEFSGVEKSFCSEGCVLLYKQDF,0.386 ± 0.075
23,LSCHYCHSLFSGKPEVLDWQDQVFQFCCRDCCEDFKRLRGVVSQCEHCRQEKLLHEKLTFSGVEKSFCSEGCVLLYKQDF,0.631 ± 0.14

row,Variant,abundance fitness
1,LSCHYCHSLFSGKPEVLDWQDQVFQFCCRDCCEDFKRLRGVVSQCEHCRQEKLLHEKLAFSGVEKSFCSEGCVLLYKQDF,0.22 ± 0.089
2,LSCHYCHSLFSGKPEVLDWQDQVFQFCCRDCCEDFKRLRGVVSQCEHCRQEKLLHEKLNFSGVEKSFCSEGCVLLYKQDF,0.609 ± 0.27
3,LSCHYCHSLFSGKPEVLDWQDQVFQFCCRDCCEDFKRLRGVVSQCEHCRQEKLLHEKLLFSGVEKSFCSEGCVLLYKQDF,0.251 ± 0.099
4,LSCHYCHSLFSGKPEVLDWQDQVFQFCCRDCCEDFKRLRGVVSQCEHCRQEKLLHEKLVFSGVEKSFCSEGCVLLYKQDF,0.306 ± 0.12
5,LSCHYCHSLFSGKPEVLDWQDQVFQFCCRDCCEDFKRLRGVVSQCEHCRQEKLLHEKLKFSGVEKSFCSEGCVLLYKQDF,0.419 ± 0.13
6,LSCHYCHSLFSGKPEVLDWQDQVFQFCCRDCCEDFKRLRGVVSQCEHCRQEKLLHEKLCFSGVEKSFCSEGCVLLYKQDF,0.514 ± 0.18
7,LSCHYCHSLFSGKPEVLDWQDQVFQFCCRDCCEDFKRLRGVVSQCEHCRQEKLLHEKLGFSGVEKSFCSEGCVLLYKQDF,-0.261 ± 0.1
8,LSCHYCHSLFSGKPEVLDWQDQVFQFCCRDCCEDFKRLRGVVSQCEHCRQEKLLHEKLSFSGVEKSFCSEGCVLLYKQDF,0.541 ± 0.13
9,LSCHYCHSLFSGKPEVLDWQDQVFQFCCRDCCEDFKRLRGVVSQCEHCRQEKLLHEKLWFSGVEKSFCSEGCVLLYKQDF,0.336 ± 0.14
10,LSCHYCHSLFSGKPEVLDWQDQVFQFCCRDCCEDFKRLRGVVSQCEHCRQEKLLHEKLDFSGVEKSFCSEGCVLLYKQDF,0.257 ± 0.11
11,LSCHYCHSLFSGKPEVLDWQDQVFQFCCRDCCEDFKRLRGVVSQCEHCRQEKLLHEKLRFSVVEKSFCSEGCVLLYKQDF,-0.8 ± 0.33
12,LSCHYCHSLFSGKPEVLDWQDQVFQFCCRDCCEDFKRLRGVVSQCEHCRQEKLLHEKLRFSAVEKSFCSEGCVLLYKQDF,-0.722 ± 0.18
13,LSCHYCHSLFSGKPEVLDWQDQVFQFCCRDCCEDFKRLRGVVSQCEHCRQEKLLHEKLRFSLVEKSFCSEGCVLLYKQDF,-1.05 ± 0.27
14,LSCHYCHSLFSGKPEVLDWQDQVFQFCCRDCCEDFKRLRGVVSQCEHCRQEKLLHEKLRFSMVEKSFCSEGCVLLYKQDF,-0.3 ± 0.32
15,LSCHYCHSLFSGKPEVLDWQDQVFQFCCRDCCEDFKRLRGVVSQCEHCRQEKLLHEKLRFSPVEKSFCSEGCVLLYKQDF,-1.01 ± 0.25
16,LSCHYCHSLFSGKPEVLDWQDQVFQFCCRDCCEDFKRLRGVVSQCEHCRQEKLLHEKLRFSWVEKSFCSEGCVLLYKQDF,-0.85 ± 0.22
17,LSCHYCHSLFSGKPEVLDWQDQVFQFCCRDCCEDFKRLRGVVSQCEHCRQEKLLHEKLRFSQVEKSFCSEGCVLLYKQDF,-0.865 ± 0.36
18,LSCHYCHSLFSGKPEVLDWQDQVFQFCCRDCCEDFKRLRGVVSQCEHCRQEKLLHEKLRFSEVEKSFCSEGCVLLYKQDF,0.013 ± 0.19
19,LSCHYCHSLFSGKPEVLDWQDQVFQFCCRDCCEDFKRLRGVVSQCEHCRQEKLLHEKLRFSRVEKSFCSEGCVLLYKQDF,-0.788 ± 0.2
20,LSCHYCHSLFSGKPEVLDWQDQVFQFCCRDCCEDFKRLRGVVSQCEHCRQEKLLHEKLRFAGVEKSFCSEGCVLLYKQDF,0.284 ± 0.12
21,LSCHYCHSLFSGKPEVLDWQDQVFQFCCRDCCEDFKRLRGVVSQCEHCRQEKLLHEKLRFEGVEKSFCSEGCVLLYKQDF,0.293 ± 0.081
22,LSCHYCHSLFSGKPEVLDWQDQVFQFCCRDCCEDFKRLRGVVSQCEHCRQEKLLHEKLRFWGVEKSFCSEGCVLLYKQDF,-0.467 ± 0.2
23,LSCHYCHSLFSGKPEVLDWQDQVFQFCCRDCCEDFKRLRGVVSQCEHCRQEKLLHEKLRFQGVEKSFCSEGCVLLYKQDF,-0.12 ± 0.17

row,Variant,abundance fitness
1,LSCHYCHSLFSGKPEVLDWQDQVFQFCCRDCCEDFKRLRGVVSQCEHCRQEKLLHEKLRFDGVEKSFCSEGCVLLYKQDF,0.665 ± 0.13
2,LSCHYCHSLFSGKPEVLDWQDQVFQFCCRDCCEDFKRLRGVVSQCEHCRQEKLLHEKLRFLGVEKSFCSEGCVLLYKQDF,-0.311 ± 0.2
3,LSCHYCHSLFSGKPEVLDWQDQVFQFCCRDCCEDFKRLRGVVSQCEHCRQEKLLHEKLRFGGVEKSFCSEGCVLLYKQDF,0.282 ± 0.077
4,LSCHYCHSLFSGKPEVLDWQDQVFQFCCRDCCEDFKRLRGVVSQCEHCRQEKLLHEKLRFPGVEKSFCSEGCVLLYKQDF,-0.424 ± 0.24
5,LSCHYCHSLFSGKPEVLDWQDQVFQFCCRDCCEDFKRLRGVVSQCEHCRQEKLLHEKLRFRGVEKSFCSEGCVLLYKQDF,-0.137 ± 0.11
6,LSCHYCHSLFSGKPEVLDWQDQVFQFCCRDCCEDFKRLRGVVSQCEHCRQEKLLHEKLRFMGVEKSFCSEGCVLLYKQDF,0.02 ± 0.17
7,LSCHYCHSLFSGKPEVLDWQDQVFQFCCRDCCEDFKRLRGVVSQCEHCRQEKLLHEKLRFVGVEKSFCSEGCVLLYKQDF,-0.389 ± 0.18
8,LSCHYCHSLFSGKPEVLDWQDQVFQFCCRDCCEDFKRLRGVVSQCEHCRQEKLLHEKLRFKGVEKSFCSEGCVLLYKQDF,-0.096 ± 0.16
9,LSCHYCHSLFSGKPEVLDWQDQVFQFCCRDCCEDFKRLRGVVSQCEHCRQEKLLHEKLRQSGVEKSFCSEGCVLLYKQDF,-0.069 ± 0.13
10,LSCHYCHSLFSGKPEVLDWQDQVFQFCCRDCCEDFKRLRGVVSQCEHCRQEKLLHEKLRDSGVEKSFCSEGCVLLYKQDF,-0.529 ± 0.36
11,LSCHYCHSLFSGKPEVLDWQDQVFQFCCRDCCEDFKRLRGVVSQCEHCRQEKLLHEKLRASGVEKSFCSEGCVLLYKQDF,-0.034 ± 0.11
12,LSCHYCHSLFSGKPEVLDWQDQVFQFCCRDCCEDFKRLRGVVSQCEHCRQEKLLHEKLRSSGVEKSFCSEGCVLLYKQDF,0.059 ± 0.12
13,LSCHYCHSLFSGKPEVLDWQDQVFQFCCRDCCEDFKRLRGVVSQCEHCRQEKLLHEKLRVSGVEKSFCSEGCVLLYKQDF,0.204 ± 0.093
14,LSCHYCHSLFSGKPEVLDWQDQVFQFCCRDCCEDFKRLRGVVSQCEHCRQEKLLHEKLRTSGVEKSFCSEGCVLLYKQDF,-0.975 ± 0.46
15,LSCHYCHSLFSGKPEVLDWQDQVFQFCCRDCCEDFKRLRGVVSQCEHCRQEKLLHEKLRMSGVEKSFCSEGCVLLYKQDF,0.079 ± 0.27
16,LSCHYCHSLFSGKPEVLDWQDQVFQFCCRDCCEDFKRLRGVVSQCEHCRQEKLLHEKLRPSGVEKSFCSEGCVLLYKQDF,0.113 ± 0.13
17,LSCHYCHSLFSGKPEVLDWQDQVFQFCCRDCCEDFKRLRGVVSQCEHCRQEKLLHEKLRRSGVEKSFCSEGCVLLYKQDF,-0.327 ± 0.12
18,LSCHYCHSLFSGKPEVLDWQDQVFQFCCRDCCEDFKRLRGVVSQCEHCRQEKLLHEKLRGSGVEKSFCSEGCVLLYKQDF,-0.314 ± 0.097
19,LSCHYCHSLFSGKPEVLDWQDQVFQFCCRDCCEDFKRLRGVVSQCEHCRQEKLLHEKLRCSGVEKSFCSEGCVLLYKQDF,-0.503 ± 0.29
20,LSCHYCHSLFSGKPEVLDWQDQVFQFCCRDCCEDFKRLRGVVSQCEHCRQEKLLHEKLRLSGVEKSFCSEGCVLLYKQDF,0.103 ± 0.11
21,LSCHYCHSLFSGKPEVLDWQDQVFQFCCRDCCEDFKRLRGVVSQCEHCRQEKLLHEKLRESGVEKSFCSEGCVLLYKQDF,0.256 ± 0.1
22,LSCHYCHSLFSGKPEVLDWQDQVFQFCCRDCCEDFKRLRGVVSQCEHCRQEKLLHEKLRFSGVCKSFCSEGCVLLYKQDF,-0.165 ± 0.42
23,LSCHYCHSLFSGKPEVLDWQDQVFQFCCRDCCEDFKRLRGVVSQCEHCRQEKLLHEKLRFSGVAKSFCSEGCVLLYKQDF,-0.571 ± 0.23
